For series [1], the target named is T1, beta-carboxyltransferase (β-CT) subunit of hetACCase, ATCG00500, Arabidopsis thaliana (Arabidopsis thaliana, UniProt P56765 1-488).
T1 construct: Native protein in chloroplast lysate
T1 sequence (looked up): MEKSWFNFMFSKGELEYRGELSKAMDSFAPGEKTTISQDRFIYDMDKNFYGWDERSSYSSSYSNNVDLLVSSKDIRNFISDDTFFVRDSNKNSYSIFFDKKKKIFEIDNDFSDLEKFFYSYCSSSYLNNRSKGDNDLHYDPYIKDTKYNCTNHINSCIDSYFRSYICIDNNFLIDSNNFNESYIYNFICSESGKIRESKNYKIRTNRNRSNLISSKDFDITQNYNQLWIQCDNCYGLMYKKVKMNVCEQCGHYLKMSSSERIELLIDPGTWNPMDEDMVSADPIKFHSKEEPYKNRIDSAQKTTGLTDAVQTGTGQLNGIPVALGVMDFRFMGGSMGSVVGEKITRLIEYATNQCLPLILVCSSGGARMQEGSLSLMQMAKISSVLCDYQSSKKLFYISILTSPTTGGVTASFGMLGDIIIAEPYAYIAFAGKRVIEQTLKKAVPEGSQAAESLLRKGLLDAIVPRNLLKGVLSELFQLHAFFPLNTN
Description: co-IP from A. thaliana chloroplast lysate with anti-BCCP2 polyclonal antibody, LC-MS/MS.
Description: For co-innmunoprecipitation of hetACCase from Arabidopsis seedlings, crude chloroplasts were isolated from approximately 10 g 14-d-old A. thaliana seedlings after 1 h light exposure. Fresh leaves were homogenized in ice-cold grinding buffer (50 mM HEPES-KOH pH 8.0, 330 mM sorbitol, 1.5 mM MnCl₂, 2 mM MgCl₂, 2 mM EDTA, 0.1% (w/v) BSA) using a Waring blender. Homogenate was filtered through two layers of Miracloth and centrifuged at 2,600 g at 4° C. for 20 min. Chloroplasts were lysed for 30 min in ice-cold lysis buffer (50 mM HEPES-KOH pH 8.0, 10% (v/v) glycerol, 0.5% (v/v) Triton X-100). Lysates were homogenized ten times in a Dounce homogenizer on ice and then centrifuged at 30 k g for 20 min at 4° C. Then, 1 mL of the 30 k g supernatant was added to 25 μL Protein A-Sepharose beads (Sigma Aldrich) either uncoated (control) or coated with antibody specific for α-CT, BCCP, BADC1, or BADC2. Co-immunoprecipations (co-IP) were carried out at 4° C. for 3 h with gentle mixing. The heads were washed twice with 1 mL ice-cold lysis buffer and precipitated protein was eluted by adding 30 μL 6×SDS sample buffer (350 mM Tris-HCl, pH 6.8, 350 mM SDS, 30% (v/v) glycerol, 100 mM dithiothreitol, 2.5 mM bromophenol blue) and heating at 65° C. for 10 min. Eluted proteins were resolved on 10% SDS-PAGE gels for western and mass spectrometry analysis. […]

Series [2] concerns the molecule itself. Description: intact mass analysis and non-reducing SDS-PAGE of purified recombinant protein (only a monomer band).
Series [3] deals with alpha-carboxyltransferase (α-CT) subunit of hetACCase, AT2G38040, Arabidopsis thaliana (Arabidopsis thaliana) (UniProt Q9LD43). Description: co-IP from A. thaliana chloroplast lysate with anti-α-CT polyclonal antibody, LC-MS/MS.
Series [4] has as its target heteromeric acetyl-coenzyme A carboxylase (hetACCase) of Arabidopsis thaliana, in silique or leaf extracts (Arabidopsis thaliana) (UniProt O04983). Description: inhibition of ACCase activity in 20-day-old A. thaliana leaf extracts with increasing recombinant BADC1, polynomial fit.

Chain of alpha-carboxyltransferase (α-CT) subunit of hetACCase, AT2G38040, Arabidopsis thaliana (Arabidopsis thaliana) (Q9LD43 55-769): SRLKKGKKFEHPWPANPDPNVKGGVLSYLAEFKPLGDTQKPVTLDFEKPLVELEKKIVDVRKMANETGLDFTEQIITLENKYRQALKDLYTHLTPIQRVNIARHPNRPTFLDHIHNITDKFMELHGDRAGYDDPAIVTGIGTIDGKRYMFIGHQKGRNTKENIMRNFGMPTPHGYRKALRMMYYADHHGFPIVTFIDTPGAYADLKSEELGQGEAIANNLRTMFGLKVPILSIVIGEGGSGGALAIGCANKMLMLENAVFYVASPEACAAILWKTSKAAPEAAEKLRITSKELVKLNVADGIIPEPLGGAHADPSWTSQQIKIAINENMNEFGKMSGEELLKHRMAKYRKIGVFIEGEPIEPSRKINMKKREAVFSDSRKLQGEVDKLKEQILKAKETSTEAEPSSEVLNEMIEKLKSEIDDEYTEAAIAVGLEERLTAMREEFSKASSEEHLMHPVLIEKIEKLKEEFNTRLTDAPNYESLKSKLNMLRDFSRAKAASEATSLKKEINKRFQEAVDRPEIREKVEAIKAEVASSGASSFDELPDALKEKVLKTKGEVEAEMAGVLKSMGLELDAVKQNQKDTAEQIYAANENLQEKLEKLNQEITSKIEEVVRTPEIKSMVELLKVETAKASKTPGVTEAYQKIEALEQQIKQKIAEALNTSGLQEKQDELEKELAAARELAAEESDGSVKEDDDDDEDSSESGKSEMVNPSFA

B1: BCCP2 (biotin carboxyl carrier protein 2 subunit of hetACCase, AT5G15530), Arabidopsis thaliana (other, UniProt Q9LLC1 88-255, looked up)
chain: EFMAKVSGLLKLVDSKDIVELELKQLDCEIVIRKKEALQQAVPPAPVYHSMPPVMADFSMPPAQPVALPPSPTPTSTPATAKPTSAPSSSHPPLKSPMAGTFYRSPGPGEPPFVKVGDKVQKGQIVCIIEAMKLMNEIEAEKSGTIMELLAEDGKPVSVDTPLFVIAP
modifications: biotinylated (residue not given)
notes: Native protein in chloroplast lysate for the co-IPs; Recombinant and two-hybrid constructs lack the TargetP-predicted transit peptide; also called AtBCCP2; NP_568316.1
B1: the binding result in series [1] is listed as “no binding”.

B2: BADC2 (Single hybrid motif protein, AT1G52670), Arabidopsis thaliana (other)
chain: TTLRSVKAIQLSTVPPAETEAIADVKDSDETKSTVVNTHLMPKSSEVEALISEITDSSSIAEFELKLGGFRLYVARKLTDESSPPPQQIQPVVAASATPEGVHTNGSATSSSLAITKTSSSSADRPQTLANKAADQGLVILQSPTVGYFRRSKTIKGKRTPTICKEKDIVKEGQVLCYIEQLGGQIPVESDVSGEIVKILREDGEPVGYNDALITVLPSFPGIKKLQ
notes: Native protein in chloroplast lysate for the co-IPs; Recombinant and two-hybrid constructs lack the TargetP-predicted transit peptide; His-tagged or untagged in co-expression; also called AtBADC2; NP_564612.1
B2: in series [2], the binding result is “no binding”. The same molecule displayed a replicates of the co-IP in which the protein was present (of seven) in series [3] of 2 replicates.

B3: BADC1 (biotin/lipoyl attachment domain-containing protein, AT3G56130), Arabidopsis thaliana (protein)
chain: AKAAKSSTTTISDGSSDASVSDGKKTVRRITFPKEVEALVHEMCDETEVAVLQLKVGDFEMNLKRKIGAATNPIPVADISPTVAPPIPSEPMNKSASSAPSPSQAKPSSEKVSPFKNTSYGKPAKLAALEASGSTNYVLVTSPAVGKFQRSRTVKGKKQSPSCKEGDAIKEGQVIGYLHQLGTELPVTSDVAGEVLKLLSDDGDSVGYGDPLVAVLPSFHDINIQ
Consider B3, for which, in series [4], the Ki (as a rule, a measure of affinity in units of concentration, obtained from inhibition or displacement) was found to be 4.3 µM. Also, the replicates of the co-IP in which the protein was present (of seven) in series [3] was 1 replicates.

(Values after patent US20210171970A1 (CURATORS OF THE UNIVERSITY OF MISSOURI, published 2021).)
